Several values for one entry are separate records, joined by “and”; a condition that tells them apart may be missing. Identical values can stand only once.

One assay addresses monomeric gp120. Put plainly: FIG. 11; method not given.
Assay [1] concerns the target 1JO8-ZM109 V1V2 scaffold. Kind of assay: SPR, antigen amine-coupled, Fab injected, 1:1 Langmuir. (In general: SPR reads the build-up and loss of mass on a sensor chip optically.)
The target of assay [2] is gp120 of HIV-1 strain ZM109 (HIV-1). The description is as above.
The target of a further assay is Linked-Dimer Cap45. Kind of assay: SPR, sensorgram box labelled PG9 Fab.
Assay [3] deals with V3 loop-deleted gp120 of HIV-1 strain AD244 (HIV-1). Kind of assay: SPR, gp120 amine-coupled, Fab injected.
The target in assay [4] is gp120 of HIV-1 strain AD244, full length (HIV-1). Kind of assay: SPR, gp120 amine-coupled, Fab injected.
The target of assay [5] is gp120 of HIV-1 strain 16055, full length (HIV-1). Put plainly: SPR, gp120 amine-coupled, Fab injected.
For assay [6], the target named is V3 loop-deleted gp120 of HIV-1 strain 16055 (HIV-1). Put plainly: SPR, gp120 amine-coupled, Fab injected.
The next assay deals with Linked-Dimer ZM109. Kind of assay: SPR.
For the next assay, the target named is Linked-Dimer A244. Kind of assay: SPR, sensorgram box labelled Flowcell 2: PG9 Fab.
Assay [7] concerns the target linked dimer of the gp120 V1/V2 domain with truncated V1 and V2 variable loops.
Assay [8] has as its target 1FD6-ZM109 V1V2 scaffold.
For assay [9], the target named is 1JO8-ZM109 V1V2 scaffold. Put plainly: SPR, scaffold immobilized, PG9 Fab injected.
In assay [10] the target is 1FD6-ZM109 V1V2 scaffold. Put plainly: SPR, scaffold immobilized, PG9 Fab injected.
The target of assay [11] is Cap45 154-177 glycopeptide with Man5GlcNAc2 at N156 and Man5GlcNAc2 at N160. Put plainly: SPR, Fab injected over biotinylated glycopeptide on a streptavidin chip.
In assay [12] the target is ZM109 154-177 glycopeptide with Man5GlcNAc2 at N160 only. The description is as above.
For assay [13], the target named is CAP45 154-177 glycopeptide with Man5GlcNAc2 at N160 only. The assay is described as above.
Assay [14] concerns the target CAP45 154-177 glycopeptide with Man5GlcNAc2 at N160 and a complex glycan at N156. The assay is described as above.
The target in assay [15] is ZM109 154-177 glycopeptide with Man5GlcNAc2 at N160 and a complex glycan at N173. Described as above.
Assay [16] concerns the target ZM109 154-177 glycopeptide with Man5GlcNAc2 at N160 and Man5GlcNAc2 at N173. The assay is described as above.
The target of assay [17] is gp120 of HIV-1 strain 16055, full length (HIV-1). Put plainly: SPR, heterogeneous ligand model, component 1, 66.0%.
Assay [18] concerns the target V3 loop-deleted gp120 of HIV-1 strain AD244 (HIV-1). Put plainly: SPR, heterogeneous ligand model, component 2, 15.5%.
For assay [19], the target named is V3 loop-deleted gp120 of HIV-1 strain 16055 (HIV-1). Put plainly: SPR, heterogeneous ligand model, component 1, 46.9%.
Assay [20] has as its target gp120 of HIV-1 strain 16055, full length (HIV-1). Put plainly: SPR, heterogeneous ligand model, component 2, 34.0%.
The target of assay [21] is V3 loop-deleted gp120 of HIV-1 strain AD244 (HIV-1). Put plainly: SPR, heterogeneous ligand model, component 1, 84.5%.
Assay [22] deals with V3 loop-deleted gp120 of HIV-1 strain 16055 (HIV-1). Put plainly: SPR, heterogeneous ligand model, component 2, 53.1%.

“Hypersulfated PG9 Fab (co-expressed with TPST-1)” showed a fold increase of affinity by sulfation in the assay with monomeric gp120 of 10 fold.
As usually defined, the Kd is the equilibrium constant for the complex coming apart. Low values mean higher affinity, high ones lower affinity. As usually defined, the koff is a measure of how fast the partners let go of each other. Read a high koff as fast dissociation. As a reminder, the kon is a measure of how fast the partners come together. A lower kon goes with slower complex formation. Take PG9 Fab: the Kd was 318 nM in the assay with 1JO8-ZM109 V1V2 scaffold [1]; 96.8 nM in assay [2]; 590 nM in the assay with Linked-Dimer Cap45; 102 nM in assay [3]; 44 nM in assay [4]; 49 nM in assay [5]. The dissociation constant (Kd) in assay [6] was 70.9 nM; with Linked-Dimer ZM109, 1610 nM; in the assay with Linked-Dimer A244 it was 1800 nM; in assay [7], 1700 nM; with 1FD6-ZM109 V1V2 scaffold [8] it was 3980 nM and 5670 nM; in assay [11], 45000 nM. Also, the Kd in assay [12] stood at 97000 nM; in [13], 50000 nM; in assay [14] it was 5700 nM; in assay [15], 5000 nM; in assay [16] it was 97000 nM. Also, the off-rate constant (koff) with 1JO8-ZM109 V1V2 scaffold [1] is 0.00253 s⁻¹; in [2] it was 0.00285 s⁻¹. Besides, the kon with 1JO8-ZM109 V1V2 scaffold [1] was found to be 7960 M⁻¹ s⁻¹; in assay [2] it was 29500 M⁻¹ s⁻¹. In addition, the results for the fold lower affinity than for wild-type ZM109 gp120 with 1JO8-ZM109 V1V2 scaffold [9] and with 1FD6-ZM109 V1V2 scaffold [10] were 3 fold and 50 fold, respectively.
For the substance PG16 Fab, the dissociation constant (Kd) in assay [17] is 370 nM; in assay [4] it was 4920 nM; in assay [18], 42.3 nM; in [19], 2070 nM; in [20] it was 399 nM; in [21] it was 3370 nM. The dissociation constant (Kd) in assay [14] was 32000 nM; in assay [15], 20000 nM; in assay [22] it was 6130 nM.

The record behind these values is patent US20140348865A1, “[…] ON AN HIV-1 V1V2 SITE-OF-VULNERABILITY” (The United States of America, as represented by the …, priority 2011, published 2014).
